Test system: MS2 coat protein
Test: apparent KD of MS2 coat protein; higher = weaker reporter binding
Conditions: Eterna round: R107
Protocol: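 RNA-MaP round R107: designed RNA switches with theophylline, tryptophan, arginine or FMN aptamers are transcribed on-chip within common flanks. They are titrated with SNAP-549-labelled MS2 coat protein in RNA-MaP buffer (100 mM Tris pH 7.5, 80 mM KCl, 4 mM MgCl2), without ligand or with the indicated ligand. Median apparent KD per design.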

[1] = input ligand: theophylline 20 uM
[2] = input ligand: tryptophan 2.4 mM
[3] = input ligand: theophylline 2 mM

| Sequence | apparent KD of MS2 coat protein (input ligand: arginine 13.2 mM) | apparent KD of MS2 coat protein [1] | apparent KD of MS2 coat protein [2] | apparent KD of MS2 coat protein (input ligand: none) | apparent KD of MS2 coat protein [3] |
| --- | --- | --- | --- | --- | --- |
| AACAUGAGGAUCACCCAUGUCAUGUUGGAUACCAGCCAAUAAUAAGGCCCUUGGCAGCUAUAGAUCGAUGAUCCAUGAGGAUCAC [Exclusion Theophylline A] | 27.6 nM | 49.4 nM | 33.1 nM | – | – |
| AACAUGAGGAUUGAUACCAGUCCAUGAGGAUCACAUGAGGAUCACCCAUGUGGAACAUGAGGCCCUUGGCAGCAGUACAACAUGA [Same State Theophylline B] | 13.8 nM | 17.2 nM | 17.3 nM | – | – |
| AACCAUCUCGGCGAUACCAGUGCCUACGAGUACAUGAGGAUCACCCAUGUAGGUGACCGACACCCUUGGCAGCGCGAUUGAGUCA [theeternabot_sameState_MS2_Theo_B_45] | 70.9 nM | 184 nM | 129 nM | – | – |
| AACGUGAACGUGGUAUACCCGUGUGCCGAAGGAGCGCCCGUAAGGGCAGGUAGGUCGCGGUCGACAUGAGGAUCACCCAUGUUUG | 39.5 nM | 84.2 nM | 81.6 nM | 74.6 nM | 106 nM |
| AACUGGAUCAGUGAUACCAGAGACAUGAGGAUCACCCAUGUACAUGAGGAUCACCCAUGUCUCCCUUGGCAGCACAGCAGGGAGC [Exclusion Theophylline B GF 17] | 32.8 nM | 70.3 nM | 64.1 nM | 70 nM | 442 nM |
| AACUGGGUUCGUGAUACCAGCUCACACAUGAGGAUCACCCAUGUAGUGGGUAAAAUGUGGAGCCCUUGGCAGCACUGUGACCACG [Esria] | 14.6 nM | 25.4 nM | 14.4 nM | – | – |
| AAGAAGUUUUGAUUUUUAUGAAGUAGUGAUACCAGUUAAGAAAGAGACCCUUGGCAGCGCAACAUGAGGAUCACCCAUGUAAGAA [Another radom design] | 18.9 nM | 21.1 nM | 21.9 nM | 17.3 nM | 19.7 nM |
| AAGACAUGAGGAUCACCCAUGUCGUCAACACGAGGACCGGUACGGCCGCCACUCGCAUGCCAAUGAGCGCAUGCGGCCUGGGUAU [Exclusion Tryp A GF4] | 8.77 nM | 18 nM | 34.3 nM | 14.8 nM | 13.8 nM |
| AAGACGGUCGGAAGGAGCGGUACAUGAGGAUCACCCAUGUAUUCCUGGGCAUCCGUAGUGUGCCAGGUAGGUCGCCGAUUGCGGG [XArg-B13] | 40.3 nM | 91.7 nM | 40.9 nM | 37.9 nM | 97.2 nM |
| AAGAGUUGACAAAAGUCAGCUCAAACCGAAGGAGCGGGAGAAAUCCCAGGUAGGUCGCGGUUACAUGAGGAUCACCCAUGUUCCU [ArgAS 6 #BothOrNeither #OpenEnded] | 68.1 nM | 376 nM | 273 nM | 355 nM | 300 nM |
| AAGAUACUCUGAAGGAGCGUCAUAAAACAUGAGGAUCACCCAUGUGCGCGGGUGUAAUUAUGACAGGUAGGUCGCAGAGUAUUUA [Arg B SS t2] | 424 nM | 515 nM | 442 nM | 179 nM | 601 nM |
| AAUAAACAUGAGGAUCACCCAUGUAUGGAAGGAGCGGUGAAUAAACCAGGUAGGUCGCCAGUGUGAGGGUCAUCUAUGUAAUAAA [Exclusion - Arginine A (Freestyle 2)] | 68.4 nM | 43.1 nM | 37.9 nM | 42.7 nM | 56.2 nM |
| AAUAACAUGAGGAUCACCCAUGUAAAAGAUACCAGAGUGAUGAUCCUCCCUUGGCAGCUUAAUAACGCUAUUGAUUACAAUAGCG [Mat - Same State Theophlline A - Mod of Eli - D6] | 33.5 nM | 98.7 nM | 37.2 nM | – | – |
| AAUAAUAGGUGAUCUUAAGUCGUACCGUAACGAGGACCGGUACGGCCGCCACUCGAACAUGAGGAUCACCCAUGUAUGUAUGAUA [whbob_SS_trypto A_f5] | 44.7 nM | 242 nM | 80.7 nM | 168 nM | 300 nM |
| AAUAUAUAUCACGAACUGUGGUGUAUGUUCCGAGGACCGGUACGGCCGCCACUCGCGUGGUUCCACAUGAGGAUCACCCAUGUUG [XTryp A #8] | 17.3 nM | 29.4 nM | 22.5 nM | 16.8 nM | 23.2 nM |
| AAUGUCGGAUCGGCCGCCACUGGUUGGCCCUGUGUACAUGAGGAUCACCCAUGUCCAUCCCAAACCAGGACCGGGAUCUUUAUGU [Xeananor] | 37.9 nM | 51.7 nM | – | – | 40.4 nM |
| AAUUAUCAGUCGGCCGCCACUGACACAUGAGGAUCACCCAUGUAACUUGGGUUAAAUUUACUGAACAGGACCGGGACAAAGGCUA [JR_ExcTryptoB_Sub009] | 114 nM | 193 nM | – | – | 203 nM |
| ACAAGAGGGAUGGAUACCAGCGACAUGAGGAUCACCCAUGUAUGAGGAUCAGCCAUGUUAUGCCCUUGGCAGCCACGAAGAUCAG [XXXMULLIN] | 27.1 nM | 32.8 nM | 21.6 nM | 25.1 nM | 104 nM |

Reference: the supplement of paper PMC9170038
